From paper PMC5903163

Biological target: glucose-regulated protein 78 (GRP78) (Mesocricetus auratus (endogenous in BHK-21)) (UniProt P07823)
Chain of UniProt P07823 (P07823 19-654): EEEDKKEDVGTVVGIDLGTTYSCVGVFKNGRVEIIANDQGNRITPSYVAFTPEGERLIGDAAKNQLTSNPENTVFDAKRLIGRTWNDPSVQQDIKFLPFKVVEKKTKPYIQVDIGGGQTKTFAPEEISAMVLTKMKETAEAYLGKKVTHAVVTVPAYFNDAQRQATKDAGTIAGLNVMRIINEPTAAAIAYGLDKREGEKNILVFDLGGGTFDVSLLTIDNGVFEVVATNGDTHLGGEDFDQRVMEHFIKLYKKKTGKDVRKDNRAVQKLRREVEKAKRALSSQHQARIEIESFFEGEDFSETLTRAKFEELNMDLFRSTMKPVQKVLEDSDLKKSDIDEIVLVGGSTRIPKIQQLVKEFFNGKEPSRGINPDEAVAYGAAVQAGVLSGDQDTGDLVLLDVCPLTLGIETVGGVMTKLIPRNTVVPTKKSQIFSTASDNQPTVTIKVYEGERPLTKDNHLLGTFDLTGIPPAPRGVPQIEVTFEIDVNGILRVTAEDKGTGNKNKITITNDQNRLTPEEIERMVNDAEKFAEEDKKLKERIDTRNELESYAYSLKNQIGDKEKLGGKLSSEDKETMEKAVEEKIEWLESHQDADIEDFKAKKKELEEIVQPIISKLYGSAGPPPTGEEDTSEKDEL

## Tembusu virus (TMUV) JS804, whole virus particle (complex)
  TMUV RNA (qRT-PCR, 24 h) in BHK-21 cells pre-incubated with 100 μg/ml anti-GRP78 N-terminal antibody (ab32618) before infection, against rabbit IgG treated cells: 50%
